Data as given in US20220073609A1 (DENALI THERAPEUTICS, published 2022).
Residue numbers refer to the chain shown, from its start. Each block holds one molecule with its values, some of them ahead of it. No end group written: not given here.

Columns and labels:
[1] = molecular target: Human TREM2 peptide (aa 129-172) (human); assay: ELISA, biotinylated stalk peptide on streptavidin plate, anti-human kappa-HRP detection
[2] = molecular target: Mouse TREM2 peptide (aa 131-169) (mouse) (UniProt Q99NH8); assay: as above
Chain of Mouse TREM2 peptide (aa 131-169) (mouse) (Q99NH8 131-169 limits assumed, form in doubt): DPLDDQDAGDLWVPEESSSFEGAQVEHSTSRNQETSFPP

[3] = molecular target: T1, Mouse TREM2 peptide (aa 149-163) (mouse, UniProt Q99NH8 149-163, also: biotinylated); assay: as above
T1 construct: range 149-163; also called truncated stalk peptide, mouse
T1 peptide (looked up): SFEGAQVEHSTSRNQ
Procedure: (§1) TREM2 antibodies were evaluated for binding to human and mouse TREM2 stalk region peptides. […] Antibody binding to TREM2 stalk peptides was detected using standard sandwich ELISA. Briefly, a 96-well half-area ELISA plate was coated with streptavidin overnight at 4° C. The following day, biotinylated TREM2 stalk peptides diluted in 1% BSA/PBS were added to the plate and incubated for 1 hour. Antibodies diluted in 1% BSA/PBS were then added and incubated for 1 hour. Antibodies bound to peptide were detected with anti-human kappa-HRP secondary antibody (Bethyl Laboratories, Inc.) diluted in 1% BSA/PBS. Plates were assayed by reaction with a detection reagent (One-step TMB Ultra, Thermo) and measurement of absorbance at 450 nm (A450) by standard spectrophotometry instrumentation (BioTek®). Data are shown as normalized values (fold over background where background=isotype control).

[4] = molecular target: T2, Human TREM2 peptide (aa 149-163) (human, also: biotinylated); assay: as above
T2 construct: also called truncated stalk peptide containing the ADAM10/17 cleavage site
T2 peptide: SFEDAHVEHSISRSL
Procedure: as §1

[5] = molecular target: T3, sTREM2 in cynomolgus CSF (cynomolgus monkey, UniProt A0A2K5UY34 49-187); assay: MSD assay, sTREM2 from CSF captured by biotinylated goat anti-human TREM2, sulfo-tagged test antibody titrated
T3 construct: domain: soluble TREM2 (sTREM2); also called soluble TREM2 in healthy cynomolgus monkey CSF
T3 sequence: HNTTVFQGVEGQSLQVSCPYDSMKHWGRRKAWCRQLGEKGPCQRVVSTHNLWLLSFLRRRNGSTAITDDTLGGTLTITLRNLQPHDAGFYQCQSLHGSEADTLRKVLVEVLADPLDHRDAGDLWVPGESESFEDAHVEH
Procedure: (§2) The affinity of anti-TREM2 antibodies to human TREM2 and cynomolgus TREM2 were measured by Biacore (described in Example 1). The potency of anti-TREM2 antibodies were measured in healthy human volunteer CSF samples (Innovative Research) and healthy cynomolgus monkey CSF samples (Worldwide Primates), by MSD assay. The potency of each antibody was determined by its EC50. Briefly, MSD GOLD 96-well small spot streptavidin plates (MSD, Cat. No. L45SA) coated with capture antibody (biotinylated goat anti-human TREM2, R&D Systems, Cat. No. BAF1828) was incubated with biofluid samples diluted 1:3 in Assay Buffer (25% (v/v) MSD Blocker A (MSD, Cat. No. R93BA-A), 75% (v/v) TBST) for one hour at room temperature. After rinsing the wells with TBST, sulfo-tagged anti-TREM2 antibody was added in a serial dilution (4× dilution over 11 points) to the wells of the plate and incubated for one hour at room temperature. The wells were washed with TBST, and MSD Read Buffer (MSD, Cat. No. R92TC-3) was added to the wells. Signal from the samples were measured using an MSD Meso Sector 5600 device. EC50 values for each antibody was determined by four-parameter variable slope non-linear regression. Reference antibodies #1 and #2 correspond to 4C5 and 6E7 described in WO 2018/195506. Reference antibody #3 corresponds to AL2p-58 described in WO 2019/028292. The variable regions of reference antibody #1 are represented by SEQ ID NOS:73 and 74. The variable regions of reference antibody #2 are represented by SEQ ID NOS:75 and 76. The variable regions of reference antibody #3 are represented by SEQ ID NOS:77 and 78.

[6] = molecular target: T4, recombinant cynomolgus TREM2 ECD (cynomolgus, UniProt A0A2K5UY34 49-204); assay: SPR (Biacore), cynomolgus TREM2
T4 construct: extracellular domain; also called cyno TREM2
T4 sequence: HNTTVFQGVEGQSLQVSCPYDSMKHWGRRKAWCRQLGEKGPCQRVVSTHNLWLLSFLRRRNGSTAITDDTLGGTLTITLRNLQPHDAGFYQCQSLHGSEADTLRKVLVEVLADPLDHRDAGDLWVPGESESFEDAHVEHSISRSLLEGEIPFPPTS
Procedure: (§3) Surface plasmon resonance (Biacore™ 8K instrument) was used to measure anti-TREM2 antibody affinities for human and cynomolgus TREM2 ECD. Anti-TREM2 antibodies were captured using Human Fab Capture Kit (GE Healthcare Life Sciences, Catalog No. 28958325) on a Biacore Series S CM5 sensor chip (GE Healthcare Life Sciences, Catalog No. 29149604). Serial 3-fold dilutions of recombinant human or cynomolgus TREM2 were injected at a flow rate of 30 μL/min. Antibody binding was monitored for 300 seconds, followed by monitoring of antibody dissociation for 600+ seconds in HBS-EP+ running buffer (GE Healthcare Life Sciences, Catalog No. BR100669). The binding response was corrected by subtracting the RU value from a blank flow cell. A 1:1 Languir model of simultaneous fitting of kₒₙ, and koff was used for kinetics analysis.
as §2, with “74.” for “74. The variable regions of reference antibody #2 are represented by SEQ ID NOS:75 and 76. The variable regions of reference antibody #3 are represented by SEQ ID NOS:77 and 78.”

[7] = molecular target: T4, recombinant cynomolgus TREM2 ECD; assay: SPR (Biacore 8K), antibody captured with Human Fab Capture Kit, recombinant TREM2 ECD injected, 1:1 fit
Procedure: as §3

Chain of Human TREM2 peptide (aa 129-172) (human) (peptide, as listed by the source): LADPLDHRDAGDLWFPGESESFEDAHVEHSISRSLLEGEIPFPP

B1: Reference antibody #3 (antibody, V domains shown)
VH: QVQLVQSGAEVKKPGASVKVSCKASGYAFSSQWMNWVRQAPGQRLEWIGRIYPGGGDTNYAGKFQGRVTITADTSASTAYMELSSLRSEDTAVYYCARLLRNQPGESYAMDYWGQGTLVTVSS
VL: DVVMTQSPDSLAVSLGERATINCRSSQSLVHSNRYTYLHWYQQKPGQSPKLLIYKVSNRFSGVPDRFSGSGSGTDFTLKISRVEAEDVGVYYCSQSTRVPYTFGQGTKLEIK
notes: also called AL2p-58 (WO 2019/028292)
EC50 [5]: 33.7 nM
Kd [6]: 9.2 nM

B2: CL0020188-7 (antibody, V domains shown)
VH: EVQLVESGGGLVQPGGSLRLSCAASGFTFTDFYMSWVRQAPGKGLEWVSVIRNKANAYTAGYNPSVKGRFTISRDNSKNTLYLQMNSLRAEDTAVYYCARLTYGFDYWGQGTLVTVSS
VL: DIVMTQTPLSLPVTPGEPASISCQSSKSLLHSTGKTYLNWYLQKPGQSPQLLIYWMSTRASGVPDRFSGSGSGTDFTLKISRVEAEDVGVYYCQQFLEYPFTFGQGTKVEIK
notes: Humanized variant of CL0020188
EC50 [5]: 0.72 nM
Kd [6]: 2.8 nM

B7: CL0020188 (antibody, V domains shown)
VH: EVKLLDSGGGLVQAGGSLRLSCAGSGFTFTDFYMSWIRQPPGKAPEWLGVIRNKANGYTAGYNPSVKGRFTISRDNTQNILYLQMNTLRAEDTAIYYCARLTYGFDYWGQGVMVTVSS
VL: DIVMTQGALPNPVPSGESASITCQSSKSLLHSNGKTYLNWYLQRPGQSPQLLIYWMSTRASGVSDRFSGSGSGTDFTLKISSVEAEDVGVYYCQQFLEYPFTFGSGTKLEIK
notes: also called Clone CL0020188
Kd [7]: 2 nM
A450 fold over background (background = isotype control) [3]: 0.9 fold
A450 fold over background (background = isotype control) [4]: 3 fold

B8: Reference antibody #1 (antibody, V domains shown)
VH: EVQLVQSGAEVKKPGESLKISCKGSGHSFTNYWIAWVRQMPGKGLEWMGIIYPGDSDTRYSPSFQGQVTISADKSISTAYLQWSSLKASDTAVYFCARQRTFYYDSSGYFDYWGQGTLVTVSS
VL: DIQMTQSPSSVSASVGDRVTITCRASQGISNWLAWYQQKPGKAPKLLIYAASSLQVGVPLRFSGSGSGTDFTLTISSLQPEDFATYYCQQADSFPRNFGQGTKLEIK
notes: also called 4C5 (WO 2018/195506)
EC50 [5]: 81.6 nM
Kd [6]: 14 nM

Second part, the molecule after the results:

A450 fold over background (background = isotype control) [1]: 1 fold
A450 fold over background (background = isotype control) [2]: 1 fold
A450 fold over background (background = isotype control) [3]: 1 fold
A450 fold over background (background = isotype control) [4]: 1 fold
Molecule: Isotype control (antibody)

EC50 [5]: 0.28 nM
Kd [6]: 1.5 nM
B3: CL0020188-4 (antibody, V domains shown)
VH: B2 VH with A24G, L45P, V48L, A57G
VL: B2 VL
notes: as for B2

EC50 [5]: 49.4 nM
Kd [6]: 9.3 nM
B4: CL0020123-5 (antibody, V domains shown)
VH: QVQLVQSGAEVKKPGASVKVSCKASGFSIEDFYIHWVRQAPGQGLEWMGWIDPEQGESKYAPKFQGRATITADTSTSTAYMELSSLRSEDTAVYYCHADHGNYGSTMDYWGQGTLVTVSS
VL: DIQMTQSPSSLSASVGDRVTITCHASQHINVWLSWYQQKPGKAPKLLIYKASNLHTGVPSRFSGSGSGTDFTLTISSLQPEDFATYYCQQGQTYPRTFGQGTKVEIK
notes: Humanized variant of CL0020123

Kd [7]: 5.7 nM
A450 fold over background (background = isotype control) [3]: 0.9 fold
B5: CL0020123 (antibody, V domains shown)
VH: EVQLQQSGAELVRSGASVKLSCTASGFSIEDFYIHWVKQRPEQGLEWIGWIDPENGDSKYAPKFQGKATMTADTSSNTAYLHLSSLTSEDTAVYYCHADHGNYGSTMDYWGQGTSVTVSS
VL: B4 VL with T5N, V15L, R18T, K42D, A43H, D70G, F83I, Q100G, V104L
notes: also called Clone CL0020123

EC50 [5]: 16.9 nM
Kd [6]: 9.4 nM
B6: CL0020123-7 (antibody, V domains shown)
VH: B4 VH with Q55N, A68V
VL: B4 VL
notes: as for B4

EC50 [5]: 6.5 nM
Kd [6]: 9.2 nM
B9: Reference antibody #2 (antibody, V domains shown)
VH: B8 VH with H27Y, N31S, V93M, G108D
VL: B8 VL with N31S, V56N, L60S, Y87F, N97T
notes: also called 6E7 (WO 2018/195506)
